Assay results taken from patent publication US10500249B2, “Compositions and methods for preventing or treating diseases, conditions, or processes characterized by aberrant fibroblast proliferation and extracellular matrix deposition” (MOERAE MATRIX, INC., priority 2014, dated 2019).

Experiments:
Experiment in all cases: Kinase Profiling Assay
Format in all cases: biochemical
Conditions in all cases: 100 μM
CHK1 (h) = target: T1, CHK1 (h) (Homo sapiens, UniProt O14757)
T1 construct: purchased Millipore
T1 sequence (O14757 1-476): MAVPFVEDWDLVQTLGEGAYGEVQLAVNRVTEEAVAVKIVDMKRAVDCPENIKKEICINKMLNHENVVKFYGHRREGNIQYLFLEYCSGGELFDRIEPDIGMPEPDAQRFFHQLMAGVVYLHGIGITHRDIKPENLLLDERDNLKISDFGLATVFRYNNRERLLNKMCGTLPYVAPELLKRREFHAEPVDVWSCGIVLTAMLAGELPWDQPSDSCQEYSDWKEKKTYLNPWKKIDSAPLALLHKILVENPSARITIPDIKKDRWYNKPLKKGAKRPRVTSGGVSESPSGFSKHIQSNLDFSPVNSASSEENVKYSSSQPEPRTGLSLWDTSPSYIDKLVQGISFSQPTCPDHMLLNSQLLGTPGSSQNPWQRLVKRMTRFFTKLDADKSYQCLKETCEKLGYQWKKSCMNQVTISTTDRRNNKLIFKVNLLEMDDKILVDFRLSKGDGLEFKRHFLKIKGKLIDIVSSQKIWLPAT
Outline: (§1)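 Kinase inhibition by MK2 inhibitory peptides was profiled radiometrically, with substrate phosphorylation from labeled ATP read by scintillation after capture on a charged filter. Values are relative to 100% activity and measured in duplicate.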

CSK (h) = target: T2, CSK (h) (Homo sapiens, UniProt P41240)
T2 construct: purchased Millipore
T2 sequence (P41240 whole entry): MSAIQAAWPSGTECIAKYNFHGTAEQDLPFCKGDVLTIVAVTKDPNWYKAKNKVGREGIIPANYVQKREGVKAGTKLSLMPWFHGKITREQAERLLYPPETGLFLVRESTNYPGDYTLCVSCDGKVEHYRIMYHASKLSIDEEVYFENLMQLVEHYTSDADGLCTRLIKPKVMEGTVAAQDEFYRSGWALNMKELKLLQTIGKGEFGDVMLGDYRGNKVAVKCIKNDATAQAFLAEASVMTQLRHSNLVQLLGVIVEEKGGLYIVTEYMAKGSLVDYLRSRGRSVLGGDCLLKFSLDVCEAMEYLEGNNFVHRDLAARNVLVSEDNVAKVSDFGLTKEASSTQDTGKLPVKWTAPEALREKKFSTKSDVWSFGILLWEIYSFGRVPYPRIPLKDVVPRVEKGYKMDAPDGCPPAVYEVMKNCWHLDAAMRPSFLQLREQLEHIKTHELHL
Outline: as §1

CaMKIIγ (h) = target: T3, CaMKIIγ (h) (Homo sapiens, UniProt Q13555)
T3 construct: purchased Millipore
T3 sequence (Q13555 whole entry): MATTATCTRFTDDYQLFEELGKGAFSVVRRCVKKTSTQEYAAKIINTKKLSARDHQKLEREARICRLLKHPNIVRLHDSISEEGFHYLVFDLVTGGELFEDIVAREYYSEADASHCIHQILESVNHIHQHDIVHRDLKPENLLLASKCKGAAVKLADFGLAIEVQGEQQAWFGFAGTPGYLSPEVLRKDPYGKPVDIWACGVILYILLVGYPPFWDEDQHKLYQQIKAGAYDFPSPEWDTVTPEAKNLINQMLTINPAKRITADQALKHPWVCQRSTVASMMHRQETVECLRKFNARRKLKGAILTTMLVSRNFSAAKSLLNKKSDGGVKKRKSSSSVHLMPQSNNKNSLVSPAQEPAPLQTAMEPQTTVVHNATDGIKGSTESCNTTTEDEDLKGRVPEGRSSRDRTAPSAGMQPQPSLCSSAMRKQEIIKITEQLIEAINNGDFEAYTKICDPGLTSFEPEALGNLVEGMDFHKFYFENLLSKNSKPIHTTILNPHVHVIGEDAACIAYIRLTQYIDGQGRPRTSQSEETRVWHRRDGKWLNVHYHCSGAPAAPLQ
Outline: as §1

DCAMKL2 (h) = target: T4, DCAMKL2 (h) (Homo sapiens, UniProt Q8N568)
T4 construct: purchased Millipore
T4 sequence (Q8N568 1-766): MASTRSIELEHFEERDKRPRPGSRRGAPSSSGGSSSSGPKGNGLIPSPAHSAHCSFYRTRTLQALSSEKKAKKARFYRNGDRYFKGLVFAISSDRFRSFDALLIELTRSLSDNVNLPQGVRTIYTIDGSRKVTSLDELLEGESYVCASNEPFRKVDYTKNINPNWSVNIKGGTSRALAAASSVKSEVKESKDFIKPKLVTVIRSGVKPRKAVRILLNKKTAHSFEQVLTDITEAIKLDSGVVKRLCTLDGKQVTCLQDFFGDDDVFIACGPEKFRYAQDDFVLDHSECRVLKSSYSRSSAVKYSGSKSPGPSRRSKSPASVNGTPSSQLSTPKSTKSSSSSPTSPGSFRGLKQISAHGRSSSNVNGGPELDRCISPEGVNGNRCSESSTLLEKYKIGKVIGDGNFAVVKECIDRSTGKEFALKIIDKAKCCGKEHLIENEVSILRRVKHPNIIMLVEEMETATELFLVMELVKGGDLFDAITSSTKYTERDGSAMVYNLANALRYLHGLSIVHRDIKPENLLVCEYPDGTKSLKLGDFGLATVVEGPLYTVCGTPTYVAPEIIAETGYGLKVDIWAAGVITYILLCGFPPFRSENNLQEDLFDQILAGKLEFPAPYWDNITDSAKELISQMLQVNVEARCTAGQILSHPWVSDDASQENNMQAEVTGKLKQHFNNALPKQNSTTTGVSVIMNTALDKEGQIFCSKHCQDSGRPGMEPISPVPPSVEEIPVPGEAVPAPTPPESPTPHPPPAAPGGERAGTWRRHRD
Outline: as §1

EphA4 (h) = EphA4 (h) (Homo sapiens, UniProt P54764)
Sequence of EphA4 (h) (P54764 20-986): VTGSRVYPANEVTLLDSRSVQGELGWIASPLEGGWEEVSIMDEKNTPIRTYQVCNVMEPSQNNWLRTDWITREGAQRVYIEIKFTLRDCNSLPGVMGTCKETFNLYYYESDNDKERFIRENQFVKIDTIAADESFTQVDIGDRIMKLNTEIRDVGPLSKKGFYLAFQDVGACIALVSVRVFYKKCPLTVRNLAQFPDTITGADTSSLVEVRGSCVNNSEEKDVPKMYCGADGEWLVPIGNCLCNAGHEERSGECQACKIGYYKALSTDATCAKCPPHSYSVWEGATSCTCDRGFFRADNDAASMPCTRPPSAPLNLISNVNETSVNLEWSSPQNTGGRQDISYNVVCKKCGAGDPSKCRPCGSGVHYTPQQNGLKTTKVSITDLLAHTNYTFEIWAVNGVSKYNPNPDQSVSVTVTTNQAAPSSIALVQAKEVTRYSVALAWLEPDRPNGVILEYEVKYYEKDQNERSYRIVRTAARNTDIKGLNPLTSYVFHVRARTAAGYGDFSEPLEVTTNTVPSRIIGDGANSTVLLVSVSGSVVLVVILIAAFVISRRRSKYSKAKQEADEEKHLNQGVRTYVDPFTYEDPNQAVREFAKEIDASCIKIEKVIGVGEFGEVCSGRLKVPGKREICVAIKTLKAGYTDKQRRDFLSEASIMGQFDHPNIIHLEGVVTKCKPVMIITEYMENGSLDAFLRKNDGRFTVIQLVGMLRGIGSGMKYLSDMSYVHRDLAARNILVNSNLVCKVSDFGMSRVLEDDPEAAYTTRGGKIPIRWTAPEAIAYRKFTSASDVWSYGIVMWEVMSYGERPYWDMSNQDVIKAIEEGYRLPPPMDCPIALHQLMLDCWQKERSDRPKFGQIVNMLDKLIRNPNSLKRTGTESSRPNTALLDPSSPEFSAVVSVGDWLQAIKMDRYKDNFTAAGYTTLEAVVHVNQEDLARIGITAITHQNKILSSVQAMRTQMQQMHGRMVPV
Outline: as §1

Fms(Y969C) (h) = Fms(Y969C) (h) (Homo sapiens, UniProt P07333, Y969C)
Outline: as §1

IRAK4 (h) = target: T5, IRAK4 (h) (Homo sapiens, UniProt Q9NWZ3)
T5 construct: purchased Millipore
T5 sequence (Q9NWZ3 1-460): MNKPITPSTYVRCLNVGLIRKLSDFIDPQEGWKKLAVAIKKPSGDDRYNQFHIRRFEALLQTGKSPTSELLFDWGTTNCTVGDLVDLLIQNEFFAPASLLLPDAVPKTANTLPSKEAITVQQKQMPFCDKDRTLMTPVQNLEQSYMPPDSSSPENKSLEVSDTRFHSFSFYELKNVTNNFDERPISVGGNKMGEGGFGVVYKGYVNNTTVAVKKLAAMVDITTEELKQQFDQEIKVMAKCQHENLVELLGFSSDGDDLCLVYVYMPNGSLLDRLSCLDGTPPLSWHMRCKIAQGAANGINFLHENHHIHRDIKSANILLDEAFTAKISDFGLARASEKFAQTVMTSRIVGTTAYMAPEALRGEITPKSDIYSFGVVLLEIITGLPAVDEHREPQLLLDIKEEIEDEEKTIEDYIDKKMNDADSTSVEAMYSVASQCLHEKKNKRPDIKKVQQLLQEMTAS
Outline: as §1

NEK2 (h) = target: T6, NEK2 (h) (Homo sapiens, UniProt P51955)
T6 construct: purchased Millipore
T6 sequence (P51955 1-445): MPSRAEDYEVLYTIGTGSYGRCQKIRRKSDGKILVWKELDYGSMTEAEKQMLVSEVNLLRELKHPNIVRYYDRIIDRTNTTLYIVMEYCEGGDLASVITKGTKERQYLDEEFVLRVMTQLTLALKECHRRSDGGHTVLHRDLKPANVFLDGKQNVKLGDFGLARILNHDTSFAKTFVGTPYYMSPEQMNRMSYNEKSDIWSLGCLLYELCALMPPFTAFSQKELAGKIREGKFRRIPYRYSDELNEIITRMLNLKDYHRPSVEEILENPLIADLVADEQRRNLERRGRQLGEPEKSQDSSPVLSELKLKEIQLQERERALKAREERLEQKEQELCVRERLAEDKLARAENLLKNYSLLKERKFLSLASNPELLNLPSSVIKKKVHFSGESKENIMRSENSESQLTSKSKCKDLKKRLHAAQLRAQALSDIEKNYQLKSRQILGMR
Outline: as §1

Ret (h) = Ret (h) (Homo sapiens, UniProt P07949)
Outline: as §1

Ret(V804M) (h) = Ret(V804M) (h) (Homo sapiens, UniProt P07949, V804M)
Outline: as §1

Tie2(Y897S) (h) = Tie2(Y897S) (h) (Homo sapiens, UniProt Q02763, Y897S)
Sequence of Tie2(Y897S) (h) (Q02763 23-1124 Y897S): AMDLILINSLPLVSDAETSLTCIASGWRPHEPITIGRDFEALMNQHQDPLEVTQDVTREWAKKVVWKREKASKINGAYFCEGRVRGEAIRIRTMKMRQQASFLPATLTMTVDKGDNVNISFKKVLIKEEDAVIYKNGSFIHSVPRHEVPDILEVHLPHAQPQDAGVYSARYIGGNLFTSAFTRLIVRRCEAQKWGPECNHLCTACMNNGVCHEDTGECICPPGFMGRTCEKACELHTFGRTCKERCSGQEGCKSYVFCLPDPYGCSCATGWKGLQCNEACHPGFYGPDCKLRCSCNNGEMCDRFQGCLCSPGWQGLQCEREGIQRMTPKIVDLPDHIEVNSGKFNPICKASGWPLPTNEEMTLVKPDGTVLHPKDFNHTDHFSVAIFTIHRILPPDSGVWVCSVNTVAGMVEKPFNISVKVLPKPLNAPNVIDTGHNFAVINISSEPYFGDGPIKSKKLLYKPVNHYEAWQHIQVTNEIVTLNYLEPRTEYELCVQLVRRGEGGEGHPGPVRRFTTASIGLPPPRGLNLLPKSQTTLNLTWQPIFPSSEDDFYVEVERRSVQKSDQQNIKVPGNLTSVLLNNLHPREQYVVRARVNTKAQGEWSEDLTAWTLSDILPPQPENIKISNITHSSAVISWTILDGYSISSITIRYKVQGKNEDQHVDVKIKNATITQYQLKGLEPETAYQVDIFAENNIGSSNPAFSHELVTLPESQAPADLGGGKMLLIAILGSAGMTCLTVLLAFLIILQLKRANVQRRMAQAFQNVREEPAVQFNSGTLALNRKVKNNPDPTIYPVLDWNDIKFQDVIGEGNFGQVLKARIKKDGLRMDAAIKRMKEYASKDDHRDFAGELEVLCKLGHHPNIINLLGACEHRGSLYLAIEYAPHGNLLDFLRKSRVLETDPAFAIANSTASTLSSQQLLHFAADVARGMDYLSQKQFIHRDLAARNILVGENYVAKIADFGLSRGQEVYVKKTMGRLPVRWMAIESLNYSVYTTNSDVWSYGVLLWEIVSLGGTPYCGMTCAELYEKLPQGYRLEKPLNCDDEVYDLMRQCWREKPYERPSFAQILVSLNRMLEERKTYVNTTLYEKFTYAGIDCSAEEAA
Outline: as §1

| Sequence | % activity (CHK1 (h)) [%] | % activity (CSK (h)) [%] | % activity (CaMKIIγ (h)) [%] | % activity (DCAMKL2 (h)) [%] | % activity (EphA4 (h)) [%] | % activity (Fms(Y969C) (h)) [%] | % activity (IRAK4 (h)) [%] | % activity (NEK2 (h)) [%] | % activity (Ret (h)) [%] | % activity (Ret(V804M) (h)) [%] | % activity (Tie2(Y897S) (h)) [%] |
| --- | --- | --- | --- | --- | --- | --- | --- | --- | --- | --- | --- |
| FAKLAARLYRKALARQLGVAA [MMI-0300] | 91 | 49 | 5 | 81 | 88 | 72 | 59 | 78 | 140 | 95 | 83 |
| HRRIKAWLKKIKALARQLGVAA (Mammalian) [MMI-0500] | 65 | 2 | 3 | 56 | 48 |  | 3 | 0 | 174 | 36 | 80 |
| KAFAKLAARLYRKALARQLGVAA [MMI-0400] | 87 | 16 | 3 | 70 | 65 | 91 | 59 | 61 | 145 | 87 | 87 |
| YARAAARQARAKALNRQLGVA (Mammalian) [MMI-0200] |  | 33 | 94 | 131 | 127 | 88 | 110 | 97 | 96 |  | 85 |
